# Assay results from patent publication US20150307616A1 (APEXIGEN, published 2015).
# B1: R-3 rabbit anti-CD40 antibody (antibody, V domains shown)
# VH: QSLEESGGDLVKPGASLTLTCTASGFSFSDSFWIAWVRQAPGKGLEWIGCIHALSSGSTYYANWARGRFTISKTSSTTVTLQMNSLTAADTATYFCARSYAGYADYNVATGLNLWGPGTLVTVSS
# VL: DVVMTQTPSSASAAVGGTVTTKCQASQSIGSYLAWYQQKPGQRPKLLIYAASNLASGVPSRFKGSRSGTEYTLTISGVQREDAATYYCLGSFTGSDTTFGGGTELEIL
# B2: 19-21 rabbit anti-CD40 antibody (antibody, V domains shown)
# VH: QSLEESGGRLVTPGTPLTLTCTVSGFDLSSNAMNWVRQAPGKGLEWIGYITISGSAGYASWAKGRFTISKTSTTVDLKISSPTTEDTATYFCARGYNTMAIWGPGTLVTVSS
# VL: AQVLTQTPSPVSAPVGGTVTINCQSSQNVLINNRLAWYQQKPGQPPKLLIYDASKLASGVPSRFKGSGSGTQFTLTISGVQCDDAATYYCQAGYSSGDGNAFGGGTEVVVK
# B3: 19-45 rabbit anti-CD40 antibody (antibody, V domains shown)
# VH: QSVEESGGRLVTPGTPLTLNCTVSGFSLSSYDMNWVRQAPGKGLEWIGVIWNNGEIFYASWAKGRFTISKTSTTVDLKITSPSTEDTATYFCAGDADGGVVSYFHVWGPGTLVTVSS
# VL: AYDMTQTPASVEVAVGGTVTIKCQASQTIYTYLAWYLQKPGQPPKLLIYEASKLASGVSSRFEGSGSGTQFTLTISGVQCDDAATYYCQQGYNSRHVDNVFGGGTEVVVK
# B4: 19-59 rabbit anti-CD40 antibody (antibody, V domains shown)
# VH: QSVEESGGRLVTPGTPLTLTCTVSGFSLSDYVMRWVRQAPGKGLEWIGVISSAGNTYYATWAKDRFTISKTSTTVDLRIASPTTEDTATYFCARIWRPDDPTNSDIWGPGTLVTVSS
# VL: DVVMTQTPSSTSAAVGGTVTIKCQASESISSSLAWYQQKPGQPPKLLIYYASDLASGVPSRFSGSRSGTEYTLTISGVQREDAATYYCLGGYATAAYRTAFGGGTELEIL
# B5: R-6 rabbit anti-CD40 antibody (antibody, V domains shown)
# VH: GGSLTLTGTASGFSFSSSYSMCWVRQAPGKGLEWIGCIDTGRGYTYHASGAKGRFTFSKTSSTTVTLQMTSLTAADTATYFCARSSYVRYDNRNYGFNLWGPGTLVTVSS
# VL: DIVMTQTPASVEAAVGGTITINCQASESISSWLSWYQQKPGQRPKLLIYYTSNLASGVPSRFKGSGAGTDFTLTISDLECADAATYYCQSNYGSSSSTYYGFGGGTEVVVK
# B6: c19-21 chimeric anti-CD40 antibody (antibody, V domains shown)
# VH: QSLEESGGRLVTPGTPLTLTCTVSGFDLSSNAMNWVRQAPGKGLEWIGYITISGSAGYASWAKGRFTISKTSTTVDLKISSPTTEDTATYFCARGYNTMAIWGPGTLVTVSS
# VL: AQVLTQTPSPVSAPVGGTVTINCQSSQNVLINNRLAWYQQKPGQPPKLLIYDASKLASGVPSRFKGSGSGTQFTLTISGVQCDDAATYYCQAGYSSGDGNAFGGGTEVVVK
# B7: cR-8 chimeric anti-CD40 antibody (antibody, V domains shown)
# VH: QSLEESGGDLVKPGASLTLTCTASGFSFSSTYVCWVRQAPGKGLEWIACIYTGDGTNYSASWAKGRFTISKPSSTTVTLQMTSLTPADTATYFCARPDITYGFAINFWGPGTLVTVSS
# VL: DIVMTQTPSSASEPVGGTVTIKCQASQSISSRLAWYQQKPGQPPKLLIYRASTLASGVPSRFKGSGSGTEFTLTISDLECADAATYYCQCTGYGISWPIGGGTEVVVK
# B8: cR-3 chimeric anti-CD40 antibody (antibody, V domains shown)
# VH: QSLEESGGDLVKPGASLTLTCTASGFSFSDSFWIAWVRQAPGKGLEWIGCIHALSSGSTYYANWARGRFTISKTSSTTVTLQMNSLTAADTATYFCARSYAGYADYNVATGLNLWGPGTLVTVSS
# VL: DVVMTQTPSSASAAVGGTVTTKCQASQSIGSYLAWYQQKPGQRPKLLIYAASNLASGVPSRFKGSRSGTEYTLTISGVQREDAATYYCLGSFTGSDTTFGGGTELEIL
# B9: cR-33 chimeric anti-CD40 antibody (antibody, V domains shown)
# VH: QSLEESGGDLVKPGASLTLTCTASGFSFSSSYWICWVRQAPGKGLEWIACINTGSSVTTVYARWAKGRFTISKASSTTVTLQMTSLTAADTATYFCARYIIPGYNFNLWGPGTLVTVSS
# VL: AYDMTQTPASVEVAVGGTVTINCQASQSISSYLYWYQQKPGQPPKLLIYDASKLASGVPSRFKGSGSGTQFTLTITGVECADAATYYCQQGYSHINVDNIFGGGTEVVVK
# B10: R-9 rabbit anti-CD40 antibody (antibody, V domains shown)
# VH: QSLEESGGDLVKPGASLTLTCTASRFSFSSTYMCWVRQAPGKGLEWIACTYTGSSGGTYYASWAKGRFTISQTSSTTVTLQLTGLTPADTATYFCARPDVGFDFAINFWGPGTLVTVSS
# VL: DIVMTQTPSSASEPVGGTVTIKCQASQSISSRLAWYQQKPGQPPKLLIYRASTLASGVSSRFKGSGSGTQFTLTISDLECADAATYYCQCTGYTISWPFGGGTEVVVK
# B11: R-16 rabbit anti-CD40 antibody (antibody, V domains shown)
# VH: QSLEESGGGLVKPGGTLTLTCKASGFSLNYYWPCWVRQAPGKGLEWVACLNGGDSDTTVYARWAKGRFTISKASSTTVTLQMTSLTAADTATYFCARYIIPGYHFNLWGPGTLVTVSS
# VL: AYDMTQTPASVSAAVGDTVTIKCQASQSISSYLYWYQQKPGQPPKLLIYQASKLASGVPSRFKGSGSGTEYTLTISDLECADVATYYCQQGYSHINVDNIFGGGFQVVVK
# B12: R-18 rabbit anti-CD40 antibody (antibody, V domains shown)
# VH: QSLEESGGDLVKPGASLTLTCTASGIDFSSYYYMCWVRQAPGKGLEWIGCIYAGSGSTYYASWAKGRFTISKTSSTTVTLQMTSLTAADTATYFCARSGYNDGSYYNLWGPGTLVTVSS
# VL: DIVMTQTPSSVEAAVGGTVTIKCQASQSIYTWLAWYQQKPGQPPKLLIYKASTLASGVPSRFKGSGSGTDYTLTISDLECDDAATYYCQRYSWNGSYGVSFGGGTEVVVR
# B13: R-24 rabbit anti-CD40 antibody (antibody, V domains shown)
# VH: QSLEESGGDLVKPGASLTLTCTASGFSFSRGYYICWVRQAPGKGLEWIACIGAGSGGTYFASWAKGRFSISRTSSTTVTLQMTSLTAADTATYFCAREDAGNDDYGYARNLWGPGTLVTVSS
# VL: DIVMTQTPASVSAAVGGTVTINCQASESAYTLLAWYQQKPGQPPKLLIYGASILESGVPSRFKGSGSGTDFTLTISDLECADAATYYCQSHYFGSSSGYANTFGGGTEVVVK
# B14: R-33 rabbit anti-CD40 antibody (antibody, V domains shown)
# VH: QSLEESGGDLVKPGASLTLTCTASGFSFSSSYWICWVRQAPGKGLEWIACINTGSSVTTVYARWAKGRFTISKASSTTVTLQMTSLTAADTATYFCARYIIPGYNFNLWGPGTLVTVSS
# VL: AYDMTQTPASVEVAVGGTVTINCQASQSISSYLYWYQQKPGQPPKLLIYDASKLASGVPSRFKGSGSGTQFTLTITGVECADAATYYCQQGYSHINVDNIFGGGTEVVVK
# B15: R-36 rabbit anti-CD40 antibody (antibody, V domains shown)
# VH: QQQLVESGGGLVKPGASLTLTCKASGFSFSSTYWICWVRQAPGKGLEWIGCINSDDSGTNVYANWAKGRFTISKASSTTVTLQMTSLTAADTATYFCARYPIPGYHFNLWGPGTLVTVSS
# VL: AYDMTQTPASVEVAVGGTVTIKCQASQNIYGYLFWYQQKPGQPPNLLIAEASKLPSGVPSRFKGSGSGTEYSLTISGVECADAATYYCQQSYSHINVDNIFGGGTEVVVK
# B16: APX005 humanized anti-CD40 antibody (antibody, IgG1, V domains shown)
# VH: QVQLVESGGGVVQPGRSLRLSCAASGFSFSSTYVCWVRQAPGKGLEWIACIYTGDGTNYSASWAKGRFTISKDSSKNTVYLQMNSLRAEDTAVYFCARPDITYGFAINFWGPGTLVTVSS
# VL: DIQMTQSPSSLSASVGDRVTIKCQASQSISSRLAWYQQKPGKPPKLLIYRASTLASGVPSRFSGSGSGTDFTLTISSLQPEDVATYYCQCTGYGISWPIGGGTKVEIK
# notes: also called humanized R-8
# Key:
# [1] = biological target: T1, human CD40 on the cell surface (human, UniProt P25942 21-277); experiment: cell-based or functional assay
# [2] = biological target: T1, human CD40 on the cell surface; experiment: cell-based or functional assay; remark: listed apart in the source
# [3] = biological target: T2, mouse CD40 (coated protein) (mouse, UniProt P27512 20-193, limits assumed); experiment: direct ELISA by the text (1 ug/ml CD40 coated, goat anti-human IgG-HRP); the axis of the sheet is labelled MFI
# T2 construct: Coated at 1 µg/ml on ELISA plates
# Procedure: Cross-reactivity was assessed by direct ELISA. A total of 1 μg/ml of human CD40, monkey CD40 or mouse CD40 was coated on ELISA plates followed by incubation with […] of APX005 or control IgG1. Antibodies bound to CD40 were detected using goat anti-human IgG conjugated with HRP. APX005 clearly crossreacts with monkey CD40 but not mouse CD40. (FIG. 11A)
# human CD40 = biological target: T3, human CD40 (human, UniProt P25942 21-193, limits assumed); experiment: method not stated
# T3 construct: also called immobilized human CD40
# [4] = biological target: T1, human CD40 on the cell surface; experiment: FACS on Ramos cells, 4 h at 37 C, Alexa 488 goat anti-human IgG
# Procedure: (§1) In order to assess the target mediated-internalization of APX005 for evaluating its impact on ADCC activity, Ramos cells were incubated with APX005 for 4 h at 37° C., a temperature permissive for internalization, or at 4° C. for 30 minutes, a temperature at which internalization is minimized. Cells were washed with staining buffer, followed by incubation with Alexa 488 labeled goat anti-human IgG for an additional 30 minutes at 4° C. FACS analysis was performed to examine the level of APX005 on the cell surface.
# [5] = biological target: T1, human CD40 on the cell surface; experiment: FACS on Ramos cells, 30 minutes at 4 C, Alexa 488 goat anti-human IgG
# Procedure: as §1
# [6] = biological target: T4, mouse CD40 on mouse A20 cells (mouse, UniProt P27512 20-289); experiment: FACS on mouse A20 cells, goat anti-human IgG (H+L)-R-PE
# T4 construct: whole, on cells; also called A20 cell line which expresses mouse CD40
# Procedure: Cross-reactivity of APX005 with mouse CD40 was further determined by FACS binding to a mouse A20 cell line which expresses mouse CD40. An aliquot of 0.5×10⁶ A20 cells was added to 96 well plates and incubated with 100 μl diluted rat anti-mouse CD40 antibody conjugated with PE, APX005 or IgG1 control antibodies. After washing, 100 μl Goat-anti human IgG (H+L) conjugated with R-PE (Southern Biotech CAT#2040-09) were added at 1:200 dilution in PBS to the sample and incubated for detection of APX005 and control human IgG1. A rat anti-mouse CD40 antibody conjugated with PE was used as positive control. Samples were re-suspended with 0.5 ml PBS and analyzed by FACS.
# T1 sequence (P25942 21-277): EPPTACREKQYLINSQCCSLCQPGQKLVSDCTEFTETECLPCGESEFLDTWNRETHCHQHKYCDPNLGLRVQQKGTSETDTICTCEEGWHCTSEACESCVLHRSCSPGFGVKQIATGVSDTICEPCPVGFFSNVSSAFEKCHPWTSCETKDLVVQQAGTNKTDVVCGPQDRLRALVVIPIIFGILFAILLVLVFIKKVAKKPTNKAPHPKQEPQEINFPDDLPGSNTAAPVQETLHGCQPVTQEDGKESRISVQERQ
# T4 sequence (P27512 20-289): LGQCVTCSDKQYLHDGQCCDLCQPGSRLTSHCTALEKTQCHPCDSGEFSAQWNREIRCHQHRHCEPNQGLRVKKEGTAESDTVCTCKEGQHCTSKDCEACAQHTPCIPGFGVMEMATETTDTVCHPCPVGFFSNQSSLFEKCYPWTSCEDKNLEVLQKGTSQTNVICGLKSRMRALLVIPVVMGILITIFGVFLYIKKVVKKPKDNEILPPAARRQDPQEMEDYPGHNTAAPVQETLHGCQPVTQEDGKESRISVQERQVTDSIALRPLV
# T3 sequence (P25942 21-193 limits assumed): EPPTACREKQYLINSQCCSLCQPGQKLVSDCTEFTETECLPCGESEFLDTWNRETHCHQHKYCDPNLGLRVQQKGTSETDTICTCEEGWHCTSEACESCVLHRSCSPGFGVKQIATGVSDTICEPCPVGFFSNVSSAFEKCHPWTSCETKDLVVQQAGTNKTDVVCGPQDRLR
# T2 sequence (P27512 20-193 limits assumed): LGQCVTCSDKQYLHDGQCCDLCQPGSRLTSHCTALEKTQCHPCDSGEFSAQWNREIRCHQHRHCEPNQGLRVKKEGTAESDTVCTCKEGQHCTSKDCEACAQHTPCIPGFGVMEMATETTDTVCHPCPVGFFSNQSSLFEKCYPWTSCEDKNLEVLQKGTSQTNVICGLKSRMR
binder,measurement,setting,value
B1,CD83 expression on human monocyte-derived DC (DC maturation assay),[1],> 50%
B2,CD83 expression on human monocyte-derived DC (DC maturation assay),[1],> 50%
B3,CD83 expression on human monocyte-derived DC (DC maturation assay),[1],> 50%
B4,CD83 expression on human monocyte-derived DC (DC maturation assay),[1],> 50%
B5,CD83 expression on human monocyte-derived DC (DC maturation assay),[1],> 50%
B6,ADCC (% cytotoxicity of Ramos cell at 1 µg/ml),[2],26%
same,Pro-apoptosis activity (IC50),[2],0.02 mg/L
B7,ADCC (% cytotoxicity of Ramos cell at 1 µg/ml),[2],33%
same,Pro-apoptosis activity (IC50),[2],0.45 mg/L
B8,ADCC (% cytotoxicity of Ramos cell at 1 µg/ml),[2],30%
same,Pro-apoptosis activity (IC50),[2],0.57 mg/L
B9,ADCC (% cytotoxicity of Ramos cell at 1 µg/ml),[2],29%
same,Pro-apoptosis activity (IC50),[2],0.9 mg/L
B10,CD83 expression on human monocyte-derived DC (DC maturation assay),[1],> 50%
B11,CD83 expression on human monocyte-derived DC (DC maturation assay),[1],> 50%
B12,CD83 expression on human monocyte-derived DC (DC maturation assay),[1],> 50%
B13,CD83 expression on human monocyte-derived DC (DC maturation assay),[1],> 50%
B14,CD83 expression on human monocyte-derived DC (DC maturation assay),[1],> 50%
B15,CD83 expression on human monocyte-derived DC (DC maturation assay),[1],> 50%
B16,binding result,[3],no binding
same,Kd,human CD40,0.96 nM
same,EC50 (read off the curve),[4],~0.05 mg/L
same,EC50 (read off the curve),[5],~0.05 mg/L
same,binding result,[6],no binding (tested: 10000 ng/ml)
